Our source for the Ki and IC50 values is PMC1931592 (BMC Pharmacology, 2007).

What all share (assay): enzyme inhibition assay (fluorogenic substrate cleavage); one unit of active recombinant human caspase incubated with various concentrations of peptide inhibitor in 100 mM NaCl, 50 mM HEPES, 10 mM DTT, 1 mM EDTA, 10% glycerol, 0.1% CHAPS, pH 7.4, 37°C, 30 min; then 200 μM substrate (Ac-DEVD-MCA for caspases-3 and -7, Ac-IETD-MCA for caspase-8, Ac-LEHD-MCA for caspase-9); apparent Ki = IC50/(1+[S]/Km)
What all share (details): both partners purified

Experiment [1] deals with Recombinant human caspase-8 (active) (human, UniProt Q14790 1-479).
Sequence of Recombinant human caspase-8 (active) (Q14790 whole entry): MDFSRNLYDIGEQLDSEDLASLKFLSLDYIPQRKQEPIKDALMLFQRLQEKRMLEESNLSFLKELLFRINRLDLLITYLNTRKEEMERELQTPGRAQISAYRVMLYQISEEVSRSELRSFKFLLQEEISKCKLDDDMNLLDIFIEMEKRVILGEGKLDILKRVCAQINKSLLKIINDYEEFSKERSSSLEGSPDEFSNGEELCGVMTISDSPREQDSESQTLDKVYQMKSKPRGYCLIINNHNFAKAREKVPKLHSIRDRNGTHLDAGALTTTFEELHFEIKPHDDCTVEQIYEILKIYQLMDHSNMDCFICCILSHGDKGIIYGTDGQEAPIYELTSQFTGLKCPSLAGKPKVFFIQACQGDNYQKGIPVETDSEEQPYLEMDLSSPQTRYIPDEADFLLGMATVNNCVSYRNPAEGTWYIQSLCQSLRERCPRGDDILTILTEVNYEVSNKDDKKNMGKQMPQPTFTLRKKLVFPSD
Experiment [2] concerns the target T1, Recombinant human caspase-3 (active) (human, UniProt P42574 1-277).
Experiment [3] deals with T2, Recombinant human caspase-7 (active) (human, UniProt P55210 1-303).
T2 sequence (P55210 whole entry): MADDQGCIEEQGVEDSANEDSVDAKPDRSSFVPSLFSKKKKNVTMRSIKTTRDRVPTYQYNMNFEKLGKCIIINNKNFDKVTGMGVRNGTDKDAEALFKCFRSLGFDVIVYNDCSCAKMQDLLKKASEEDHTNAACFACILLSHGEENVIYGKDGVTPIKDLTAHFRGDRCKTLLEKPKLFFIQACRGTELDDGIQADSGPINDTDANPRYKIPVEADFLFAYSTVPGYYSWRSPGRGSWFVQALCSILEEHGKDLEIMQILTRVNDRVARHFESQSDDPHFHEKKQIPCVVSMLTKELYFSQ
The target in experiment [4] is T1, Recombinant human caspase-3 (active). This is another data set of the same source.
Experiment [5] deals with T2, Recombinant human caspase-7 (active). This is another data set of the same source.

One may read the IC50 as the concentration that inhibits the measured activity by half.

Some results are limits rather than exact numbers.

T1 sequence (P42574 whole entry): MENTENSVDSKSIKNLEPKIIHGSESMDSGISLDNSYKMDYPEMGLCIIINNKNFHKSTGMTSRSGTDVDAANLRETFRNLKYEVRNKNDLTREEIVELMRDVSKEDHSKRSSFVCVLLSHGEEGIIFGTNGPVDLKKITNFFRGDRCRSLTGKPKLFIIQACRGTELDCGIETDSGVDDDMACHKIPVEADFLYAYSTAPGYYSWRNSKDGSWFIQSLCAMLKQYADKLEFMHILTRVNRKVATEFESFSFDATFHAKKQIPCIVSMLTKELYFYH

B1: Ac-DNLD-CHO (peptide)
peptide: Ac-DNLD-aldehyde
notes: tetrapeptide designed by the computational APF method; so far not known in any natural caspase substrate; source: synthetic peptide (synthesized by Peptide Institute, Inc)
Consider B1, for which the Ki in experiment [1] is greater than 200 nM.

B2: Ac-DMQD-CHO (peptide)
peptide: Ac-DMQD-aldehyde
SMILES: CSCC[C@H](NC(=O)[C@H](CC(=O)O)NC(C)=O)C(=O)N[C@@H](CCC(N)=O)C(=O)N[C@H](C=O)CC(=O)O
notes: source: bought: Peptide Institute, Inc (synthetic peptide)
Turning to B2, the Ki was greater than 200 nM in experiment [1], 13.3 ± 0.3 nM in experiment [2] and greater than 200 nM in experiment [3]. Besides, the IC50 in experiment [4] came out at 193 nM.

B3: Ac-DEVD-CHO (peptide)
peptide: Ac-DEVD-aldehyde
notes: as for B2
Consider B3, for which the Ki in experiment [1] was 0.597 ± 0.095 nM; in experiment [3], 4.48 ± 0.21 nM. In experiment [5], the 50% inhibitory concentration (IC50) amounted to 19.7 nM.

B4: Ac-DQTD-CHO (peptide)
peptide: Ac-DQTD-aldehyde
SMILES: CC(=O)N[C@@H](CC(=O)O)C(=O)N[C@@H](CCC(N)=O)C(=O)N[C@H](C(=O)N[C@H](C=O)CC(=O)O)[C@@H](C)O
notes: as for B2
Consider B4, for which the Ki in experiment [1] amounted to 9.75 ± 1.09 nM; in experiment [2], 1.27 ± 0.11 nM; in experiment [3], 21.8 ± 1.1 nM.
